The chains are these.
B1: GST-Dyn1xA-PRR (full-length proline-rich region of Dynamin 1 splice variant xA, 746-864) [rat] / Amphiphysin 1 (endogenous, rat brain synaptosomes) [rat (endogenous in rat brain synaptosomes)] (parent complex)
chain 1: NTTTVSTPMPPPVDDSWLQVQSVPAGRRSPTSSPTPQRRAPAVPPARPGSRGPAPGPPPAGSALGGAPPVPSRPGASPDPFGPPPQVPSRPNRAPPGVPSRSGQASPSRPESPRPPFDL
chain 2: MADIKTGIFAKNVQKRLNRAQEKVLQKLGKADETKDEQFEEYVQNFKRQEAEGTRLQRELRGYLAAIKGMQEASMKLTESLHEVYEPDWYGREDVKMVGEKCDVLWEDFHQKLVDGSLLTLDTYLGQFPDIKNRIAKRSRKLVDYDSARHHLEALQSSKRKDESRISKAEEEFQKAQKVFEEFNVDLQEELPSLWSRRVGFYVNTFKNVSSLEAKFHKEIAVLCHKLYEVMTKLGDQHADKAFSIQGAPSDSGPLRIAKTPSPPEEASPLPSPTASPNHTLAPASPAPVRPRSPSQTRKGPPVPPLPKVTPTKELQQENIINFFEDNFVPEINVTTPSQNEVLEVKKEETLLDLDFDPFKPDVTPAGSAAATHSPMSQTLPWDLWTTSTDLVQPASGGSFNDFTQPQDTSLFTMQTDQNMAETEQALPTEPQAEEPPTTAAAPTAGLDLGLEMEEPKEEAAIPPGTDAGETVGTEGSTGEEAEAEKAALPAGEGESPEGAKIDVESTELASSESPQAAELEAGAPQEKVIPSVVIEPASNHEGEEHQETTTGTETREATEDVAPQGPAGEKQELATEPTPLDSQAATPAPAGAVDASLSAGDAAQELPPGFLYKVETLHDFEAANSDELTLQRGDVVLVVPSDSEADQDAGWLVGVKESDWLQYRDLATYKGLFPENFTRHLE
B2: GST-Dyn1xA-PRR (full-length proline-rich region of Dynamin 1 splice variant xA, 746-864) [rat] / Endophilin A1 (endogenous, rat brain synaptosomes) [rat (endogenous in rat brain synaptosomes)] (parent complex)
chain 1: B1 chain 1
chain 2: MSVAGLKKQFHKATQKVSEKVGGAEGTKLDDDFKEMERKVDVTSRAVMEIMTKTIEYLQPNPASRAKLSMINTMSKIRGQEKGPGYPQAEALLAEAMLKFGRELGDDCNFGPALGEVGEAMRELSEVKDSLDMEVKQNFIDPLQNLHDKDLREIQHHLKKLEGRRLDFDYKKKRQGKIPDEELRQALEKFDESKEIAESSMFNLLEMDIEQVSQLSALVQAQLEYHKQAVQILQQVTVRLEERIRQASSQPRREYQPKPRMSLEFATGDGTQPNGGLSHTGTPKPAGVQMDQPCCRALYDFEPENEGELGFKEGDIITLTNQIDENWYEGMLHGQSGFFPINYVEILVALPH

Drawing on doi:10.1101/2023.09.21.558797 (2023), this text covers percent of parent for four variants.

In the first experiment the parent is B1. The experiment in a line: GST pull-down, densitometry of western blots; n=2; parent: 100; read off a plot. A general note: In western blotting, separated proteins are transferred to a membrane and probed.
In the case of chain 1 NTTTVSTPMPPPVDDSWLQVQSVPAGRREPTSEPTPQRRAPAVPPARPGSRGPAPGPPPAGSALGGAPPVPSRPGASPDPFGPPPQVPSRPNRAPPGVPSRSGQASPSRPESPRPPFDL [chain 1 S29E, chain 1 S33E], the percent of parent is approximately 98%.

chain 1 NTTTVSTPMPPPVDDSWLQVQSVPAGRRSPTSSPTPQRRAPAVPPARPGSRGPAPGPPPAGSALGGAPPVPSRPGASPDPFGPPPQVPSRPNRAPPGVPSRSGQAEPSRPEEPRPPFDL [chain 1 S106E, chain 1 S112E]: the percent of parent is approximately 90%.

Another experiment covers variants of B2. The description is as above.
With chain 1 S29E, chain 1 S33E, the percent of parent is approximately 37%.

Consider chain 1 S106E, chain 1 S112E, for which the percent of parent is approximately 53%.
